From PMC6768103, “Functional and structural characterization of HspB1/Hsp27 from Chinese hamster ovary cells” (FEBS Open Bio, 2019)

T1: porcine heart citrate synthase (pig, UniProt P00889 28-464)
T1 construct: citrate synthase from porcine heart; Client protein; the complex with CgHspB1 appeared only after heating at 55 °C (heat-denatured CS); also called CS
T1 sequence (looked up): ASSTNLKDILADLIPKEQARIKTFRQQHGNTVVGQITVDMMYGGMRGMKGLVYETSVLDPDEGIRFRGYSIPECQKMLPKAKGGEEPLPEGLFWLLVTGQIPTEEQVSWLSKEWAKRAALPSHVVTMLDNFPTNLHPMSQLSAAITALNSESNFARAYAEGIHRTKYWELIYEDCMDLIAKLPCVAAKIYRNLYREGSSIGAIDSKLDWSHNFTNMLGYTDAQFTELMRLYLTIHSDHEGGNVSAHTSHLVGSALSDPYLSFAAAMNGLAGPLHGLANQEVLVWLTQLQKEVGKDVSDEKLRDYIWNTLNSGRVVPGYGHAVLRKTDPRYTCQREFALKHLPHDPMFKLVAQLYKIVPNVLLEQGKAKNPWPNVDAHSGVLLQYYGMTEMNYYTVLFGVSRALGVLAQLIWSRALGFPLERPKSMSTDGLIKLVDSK


Assays:
[1] = biological target: the molecule itself; assay: SEC; mixture of CgHspB1WT (30 µM) and IPMDH incubated at 25 and 55 °C for 30 min and analysed at the same temperature; the 55 °C mixture also cooled and analysed at 25 °C
[2] = biological target: the molecule itself; assay: SEC-MALS; TSKgel G3000XL column, buffer B (50 mM Tris/HCl pH 7.5, 0.1 mM EDTA, 150 mM NaCl), room temperature
[3] = biological target: T1, porcine heart citrate synthase; assay: SEC; mixture of CgHspB1WT (30 µM) and CS incubated at 55 °C for 30 min, cooled to 25 °C and analysed at 25 °C; details: both partners purified
[4] = biological target: the molecule itself; assay: SEC; SB-804HQ column on HPLC, buffer B with 20% ethylene glycol, 6 or 12 µM as monomer, heated 30 min at the specified temperature and run at the same temperature

Binder | stoichiometry N [1] | stoichiometry N [2] | binding result [3] | stoichiometry N [4]
isopropyl malate dehydrogenase from Thermus thermophilus HB8 (enzyme, UniProt Q5SIY4 1-345, looked up, isopropyl malate dehydrogenase (3-isopropylmalate dehydrogenase) from Thermus thermophilus HB8; also called IPMDH) MKVAVLPGDGIGPEVTEAALKVLRALDEAEGLGLAYEVFPFGGAAIDAFGEPFPEPTRKGVEEAEAVLLGSVGGPKWDGLPRKIRPETGLLSLRKSQDLFANLRPAKVFPGLERLSPLKEEIARGVDVLIVRELTGGIYFGEPRGMSEAEAWNTERYSKPEVERVARVAFEAARKRRKHVVSVDKANVLEVGEFWRKTVEEVGRGYPDVALEHQYVDAMAMHLVRSPARFDVVVTGNIFGDILSDLASVLPGSLGLLPSASLGRGTPVFEPVHGSAPDIAGKGIANPTAAILSAAMMLEHAFGLVELARKVEDAVAKALLETPPPDLGGSAGTEAFTATVLRHLA | 2 | – | – | –
wild‐type CgHspB1 (HspB1/Hsp27 from Chinese hamster ovary cells) (natural protein, Chinese hamster (Cricetulus griseus), UniProt A0A8C2QII0 1-213, looked up, HspB1/Hsp27 of Chinese hamster (Cricetulus griseus), full-length gene amplified from total cDNA of CHO cells; deduced subunit mass 23.4 kDa; 16-mer at room temperature by SEC-MALS; the oligomer varies with temperature and concentration; also called CgHspB1WT; HspB1 from CHO cells; source: E. coli BL21 Star (DE3) / BL21 (DE3), pET23b, purified (DEAE, RESOURCE Q, Superdex 200); copies: 16) MTERRVPFSLLRSPSWEPFRDWYPAHSRLFDQAFGVPRLPDEWSQWFSAAGWPGYVRPLPAATAEGPAAVALAAPLAAPAFHRALNRQLSSGVSEIRQTADRWRVSLDVNHFAPEELTVKTKEGVVEITGKHEERQDEHGYISRCFTRKYTLPPGVDPTLVSSSLSPEGTLTVEAPLPKTATQSAEITIPVTFEARAQIGGQEAGKSEQSGAK | – | 16 | binds | ~2
CgHspB1 with S15D mutation (natural protein, Chinese hamster (Cricetulus griseus), UniProt A0A8C2QII0 1-213, looked up, HspB1/Hsp27 of Chinese hamster (Cricetulus griseus), full-length gene from CHO cell cDNA, with S15D; Made by site-directed mutagenesis on pET23b-CgHspB1WT; also called CgHspB1S15D; CgHspBS15D; source: E. coli BL21 (DE3), pET23b, purified (DEAE, RESOURCE Q, Superdex 200)) MTERRVPFSLLRSPDWEPFRDWYPAHSRLFDQAFGVPRLPDEWSQWFSAAGWPGYVRPLPAATAEGPAAVALAAPLAAPAFHRALNRQLSSGVSEIRQTADRWRVSLDVNHFAPEELTVKTKEGVVEITGKHEERQDEHGYISRCFTRKYTLPPGVDPTLVSSSLSPEGTLTVEAPLPKTATQSAEITIPVTFEARAQIGGQEAGKSEQSGAK | – | – | – | ~2
